For assay [1], the target named is T1, cynomolgus monkey FcγRIIIaS extracellular domain, C-terminal His-tag (cynomolgus monkey, UniProt Q8SPW2 21-206 at identity 1.00)).
T1 construct: also called cyno FcγRIIIaS; FcgRIIIaS
T1 chain: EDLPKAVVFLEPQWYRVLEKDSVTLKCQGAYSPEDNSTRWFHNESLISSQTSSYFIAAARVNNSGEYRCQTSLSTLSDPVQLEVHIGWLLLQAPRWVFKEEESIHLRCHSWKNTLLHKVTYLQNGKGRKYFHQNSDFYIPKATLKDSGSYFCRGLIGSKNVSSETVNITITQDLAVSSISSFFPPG
The assay is described as follows: SPR; KD of SG1 / KD of variant.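 Also: relative to parent M103205H795-SG1 carrying the SG1 human heavy chain constant region.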 How it is done:
(§1) The kinetic analysis of interactions between these antibodies and FcγR was carried out using BIACORE® T200 or BIACORE® 4000 (GE Healthcare). HBS-EP+ (GE Healthcare) was used as the running buffer, and the measurement temperature was set to 25° C. A chip produced by immobilizing Protein A. Protein A/G or mouse anti-human IgG kappa light chain (BD Biosciences) onto a Series S Sensor Chip CM4 or CM5 (GE Healthcare) by the amine-coupling method was used. […] After the measurement, the antibody captured on the chip was washed off by allowing reaction with 10 mM glycine-HCl, pH1.5 and 25 mM NaOH so that the chip was regenerated and used repeatedly. The sensorgrams obtained as measurement results were analyzed by the 1:1 Langmuir binding model using the BIACORE® Evaluation Software to calculate the binding rate constant ka (L/mol/s) and dissociation rate constant kd (l/s), and the dissociation constant KD (mol/L) was calculated from these values. […] Regarding such interactions, KD values were calculated using the following 1:1 binding model described in BIACORE® T100 Software Handbook BR1006-48 Edition AE.

For assay [2], the target named is T2, human FcγRIIaR extracellular domain, C-terminal His-tag (human, UniProt P12318 34-217).
T2 construct: also called human FcγRIIa (type R); FcgRIIaR
T2 chain: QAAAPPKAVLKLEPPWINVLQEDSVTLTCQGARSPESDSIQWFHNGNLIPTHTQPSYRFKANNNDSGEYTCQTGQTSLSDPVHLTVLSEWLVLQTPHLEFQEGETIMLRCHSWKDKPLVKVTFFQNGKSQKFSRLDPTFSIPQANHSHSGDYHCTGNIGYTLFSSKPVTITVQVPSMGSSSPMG
The assay is described as follows: SPR; KD of SG1 / KD of variant.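 Also: relative to parent M103205H795-SG1 carrying the SG1 human heavy chain constant region.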 How it is done: as §1

Assay [3] deals with T3, cynomolgus monkey FcγRIIa1 extracellular domain, C-terminal His-tag (cynomolgus monkey).
T3 construct: also called cyno FcγRIIa1; FcgRIIa1
T3 chain: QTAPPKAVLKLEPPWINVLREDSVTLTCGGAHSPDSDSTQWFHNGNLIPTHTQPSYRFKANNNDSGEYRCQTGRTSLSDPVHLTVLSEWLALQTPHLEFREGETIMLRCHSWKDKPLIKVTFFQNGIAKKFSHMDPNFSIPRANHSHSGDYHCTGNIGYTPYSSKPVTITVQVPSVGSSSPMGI
Put plainly: SPR; KD of SG1 / KD of variant.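 Also: relative to parent M103205H795-SG1 carrying the SG1 human heavy chain constant region.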 How it is done:
as §1

The target of assay [4] is T2, human FcγRIIaR extracellular domain, …. Put plainly: SPR (BIACORE) 25C, antibody captured, FcgR as analyte. How it is done: as §1
Assay [5] concerns the target T3, cynomolgus monkey FcγRIIa1 …. Described as above. How it is done:
as §1

Assay [6] addresses T4, human FcγRIIb extracellular domain, C-terminal His-tag (human, UniProt P31994 43-217).
T4 construct: also called FcgRIIb (human)
T4 sequence: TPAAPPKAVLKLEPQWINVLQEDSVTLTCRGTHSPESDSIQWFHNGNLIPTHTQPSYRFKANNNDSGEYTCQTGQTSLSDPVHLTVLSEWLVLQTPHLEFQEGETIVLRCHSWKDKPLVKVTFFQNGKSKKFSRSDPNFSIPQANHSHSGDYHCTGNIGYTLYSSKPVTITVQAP
The description is as above. How it is done: as §1

Assay [7] has as its target T5, cynomolgus monkey FcγRIIb extracellular domain, C-terminal His-tag (cynomolgus monkey).
T5 construct: also called cyno FcγRIIb; cynoFcγRIIb
T5 chain: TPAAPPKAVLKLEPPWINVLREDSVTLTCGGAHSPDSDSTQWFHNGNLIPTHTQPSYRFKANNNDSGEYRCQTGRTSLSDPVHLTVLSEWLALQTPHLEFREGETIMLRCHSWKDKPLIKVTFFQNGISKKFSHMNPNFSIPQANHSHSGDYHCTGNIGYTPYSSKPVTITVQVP
The assay is described as above. The method, then:
as §1

The target of assay [8] is T6, cynomolgus monkey FcγRIIa2 extracellular domain, C-terminal His-tag (cynomolgus monkey).
T6 construct: also called cyno FcγRIIa2; FcgRIIa2
T6 chain: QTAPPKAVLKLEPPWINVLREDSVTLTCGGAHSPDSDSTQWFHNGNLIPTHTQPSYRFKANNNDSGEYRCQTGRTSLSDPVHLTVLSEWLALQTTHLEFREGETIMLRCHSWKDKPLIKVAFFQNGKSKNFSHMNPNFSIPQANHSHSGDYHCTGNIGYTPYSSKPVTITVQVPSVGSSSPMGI
The assay is described as above. How it is done: as §1

Assay [9] has as its target T7, cynomolgus monkey FcγRIIa3 extracellular domain, C-terminal His-tag (cynomolgus monkey).
T7 construct: also called cyno FcγRIIa3; FcgRIIa3
T7 chain: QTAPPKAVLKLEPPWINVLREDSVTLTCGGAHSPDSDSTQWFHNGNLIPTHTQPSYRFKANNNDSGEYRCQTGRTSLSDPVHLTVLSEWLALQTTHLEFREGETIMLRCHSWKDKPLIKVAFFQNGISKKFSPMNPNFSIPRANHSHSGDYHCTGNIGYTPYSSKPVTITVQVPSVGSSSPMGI
The assay is described as above. How it is done: as §1

B1: MS_M103205H795-SG1/M103202L889-SK1 (antibody, human IgG1, kappa)
heavy: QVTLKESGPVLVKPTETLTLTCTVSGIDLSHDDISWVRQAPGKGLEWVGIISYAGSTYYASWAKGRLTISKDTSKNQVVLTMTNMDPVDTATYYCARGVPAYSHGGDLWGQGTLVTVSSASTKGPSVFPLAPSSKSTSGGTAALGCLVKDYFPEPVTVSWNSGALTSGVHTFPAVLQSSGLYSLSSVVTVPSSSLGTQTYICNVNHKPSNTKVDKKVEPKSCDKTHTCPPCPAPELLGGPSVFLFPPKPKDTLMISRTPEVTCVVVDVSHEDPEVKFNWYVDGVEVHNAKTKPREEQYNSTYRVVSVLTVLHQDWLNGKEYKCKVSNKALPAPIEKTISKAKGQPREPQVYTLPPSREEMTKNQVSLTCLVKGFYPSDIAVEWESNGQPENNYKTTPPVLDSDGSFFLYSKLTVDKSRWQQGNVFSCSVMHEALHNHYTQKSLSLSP
light: DIVMTQSPATLSLSPGERATLSCTSSQSVYHANWLSWFQQKPGQPPKLLIYWASTLAYGVPSRFSGSGSGTDFTLTISSLQPEDAATYYCAGGYGGGRYAFGQGTKVEIKRTVAAPSVFIFPPSDEQLKSGTASVVCLLNNFYPREAKVQWKVDNALQSGNSQESVTEQDSKDSTYSLSSTLTLSKADYEKHKVYACEVTHQGLSSPVTKSFNRGEC
notes: also called MS1032LO06-SG1
On to B1, for which the “KD fold (SG1 = 1)” value in [1], in assay [2] and in [3] was 1 fold in each case. Besides, the Kd in [4] came out at 1.4 µM; in assay [5] it was 4.2 µM; in assay [6], 4.7 µM; in assay [7], 1.7 µM; in assay [8], 5.2 µM; in assay [9], 15 µM.

B2: M103205H795-MY009/M103202L889-SK1 (antibody, human IgG1, kappa)
heavy: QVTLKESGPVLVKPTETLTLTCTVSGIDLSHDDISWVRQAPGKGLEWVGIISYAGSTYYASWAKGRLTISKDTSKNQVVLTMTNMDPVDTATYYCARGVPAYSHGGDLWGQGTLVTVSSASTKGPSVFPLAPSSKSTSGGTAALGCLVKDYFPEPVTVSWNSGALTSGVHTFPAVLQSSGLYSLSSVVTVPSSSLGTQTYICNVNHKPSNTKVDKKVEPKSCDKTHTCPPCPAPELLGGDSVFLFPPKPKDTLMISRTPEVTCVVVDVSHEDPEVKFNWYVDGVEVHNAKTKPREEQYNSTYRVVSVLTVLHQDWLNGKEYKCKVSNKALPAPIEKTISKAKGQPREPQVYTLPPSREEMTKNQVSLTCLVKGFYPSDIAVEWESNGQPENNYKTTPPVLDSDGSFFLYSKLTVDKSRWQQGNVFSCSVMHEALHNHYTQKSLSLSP
light: DIVMTQSPATLSLSPGERATLSCTSSQSVYHANWLSWFQQKPGQPPKLLIYWASTLAYGVPSRFSGSGSGTDFTLTISSLQPEDAATYYCAGGYGGGRYAFGQGTKVEIKRTVAAPSVFIFPPSDEQLKSGTASVVCLLNNFYPREAKVQWKVDNALQSGNSQESVTEQDSKDSTYSLSSTLTLSKADYEKHKVYACEVTHQGLSSPVTKSFNRGEC
notes: CH MY009 = SG1 with P238D (EU numbering); also called MS1032LO06-MY009
Regarding B2, the entries for the “KD fold (SG1 = 1)” value in assay [1], in [2] and in [3] were 0.004 fold, 0.1 fold and 0.2 fold, respectively. Also, the Kd in [4] amounted to 20 µM; in assay [5], 25 µM; in assay [6], 1.4 µM; in assay [7], 4.9 µM; in [8], 26 µM; in [9], 31 µM.

The values are drawn from patent US20200317768A1 (published 2020).
